Drawing on the RNAGym collection of RNA variant scans (doi:10.7554/elife.90254), this text covers self-cleavage for 167 variants.

The labels stand for the following.
B1: LINE1-mini (parent)
chain: GGCAGAGCUCAACACAGCGUGGCAAAGUGGCUGUGGCUAGACUGCC

The variants in this data set derive from B1. Nature of the data set: self-cleavage, relative activity (ratio to wild type); higher = more cleavage; in vitro, sequencing; the parent is a self-cleaving ribozyme.
With A14G U28G, the self-cleavage amounted to 0.3. Under A14G U28A stands 0.39. Under A14G U28C stands 0.04; under A14G A16C, 0.08; under A14G A16G, 0.1. Take A14G A16U: the self-cleavage turned out to be 0.06. Under A14G G44C stands 0.19; under A14G G44A, 0.22. For A14G G44U the value was 0.19.

On to C13U G36A, for which the self-cleavage was 0.63. Under C13U G36C stands 0.11.

C13U G36U: the self-cleavage stood at 0.15. For A14C G30A the value was 0.21; for A14C G30C, 0.07. With A14C G30U, the self-cleavage is 0.07. Consider A14G A39G, for which the self-cleavage stood at 0.1.

For the variant A14G A39U, the self-cleavage is 0.37. With A14G A39C, the self-cleavage worked out at 0.39.

On to A14C U38G, for which the self-cleavage came to 0.02. Under A14C U38A stands 0.21; under A14C U38C, 0.07; under A14C G40U, 0.07. Take A14C G40A: the self-cleavage turned out to be 0.09. For A14C G40C the value was 0.04; for C13U A24C, 0.15. Under C13U A24U stands 0.16; under C13U A24G, 0.13; under A14C G17U, 0.28. For A14C G17A the value was 0.08; for A14C G17C, 0.04. Turning to C13U U32A, the self-cleavage came to 0.11.

For the variant C13U U32G, the self-cleavage was 0.21. As for C13U U32C, the self-cleavage is 0.08. Under A14C G35C stands 0.04; under A14C G35U, 0.07. In the case of A14C G35A, the self-cleavage amounted to 0.09. Consider C13U, for which the self-cleavage is 0.17.

With A14C G21U, the self-cleavage turned out to be 0.07.

As to A14C G21C, the self-cleavage turned out to be 0.05.

A14C G21A: the self-cleavage stood at 0.17.

For the variant C13G G30U, the self-cleavage was determined as 0.19. Consider C13G G30A, for which the self-cleavage worked out at 0.15. Regarding C13G G30C, the self-cleavage came to 0.12. A14C C45A: the self-cleavage was 0.08. For A14C C45U the value was 0.08. For A14C C45G the value was 0.11; for A14G G29U, 0.29. For A14G G29C the value was 0.37. On to A14G G29A, for which the self-cleavage turned out to be 0.78. C13U G21A: the self-cleavage came to 0.22. Consider C13U G21U, for which the self-cleavage amounted to 0.18. Under C13U G21C stands 0.25; under C13U C37A, 0.27. On to C13U C37G, for which the self-cleavage came out at 0.1. Turning to C13U C37U, the self-cleavage worked out at 0.11. As to C13U C45A, the self-cleavage amounted to 0.05.

C13U C45G: the self-cleavage is 0.06. As to C13U C45U, the self-cleavage was found to be 0.13.

For the variant C13U G22C, the self-cleavage worked out at 0.1. For the variant C13U G22U, the self-cleavage was 0.32. For C13U G22A the value was 0.13; for C13U G19U, 0.23. For C13U G19C the value was 0.07; for C13U G19A, 0.16. Under A14C U28C stands 0.07; under A14C U28G, 0.07; under A14C U28A, 0.03. Turning to A14C A41G, the self-cleavage came to 0.05.

For A14C A41U, the self-cleavage turned out to be 0.06. For A14C A41C the value was 0.04; for A14C C23U, 0.12.

On to A14C C23G, for which the self-cleavage is 0.11. Under A14C C23A stands 0.21. Regarding A14C U20A, the self-cleavage came out at 0.08. Regarding A14C U20G, the self-cleavage was 0.1.

Consider A14C U20C, for which the self-cleavage stood at 0.08. Under C13U A14C stands 0.09.

Take C13U A14G: the self-cleavage was found to be 0.17. For C13U A14U the value was 0.1; for A14C U43G, 0.01. As to A14C U43A, the self-cleavage stood at 0.2. As to A14C U43C, the self-cleavage was determined as 0.04. Take A14U A16U: the self-cleavage is 0.1. For A14U A16G the value was 0.09; for A14U A16C, 0.1; for A14G A25G, 0.32. Under A14G A25C stands 0.18.

Take A14G A25U: the self-cleavage amounted to 0.53. Consider A14G A41U, for which the self-cleavage came to 0.77.

Take A14G A41G: the self-cleavage was found to be 0.16. For A14G A41C the value was 0.05. For A14G G35C the value was 0.05. A14G G35U: the self-cleavage was 0.15. Under A14G G35A stands 0.07. Take C13U G35C: the self-cleavage is 0.22.

As for C13U G35A, the self-cleavage was 0.71. Under C13U G35U stands 0.18; under A14G G40U, 0.12; under A14G G40A, 0.1. Under A14G G40C stands 0.09; under C13G U38G, 0.01. Consider C13G U38C, for which the self-cleavage was determined as 0.41. For C13G U38A the value was 0.05; for C13G G44U, 0.06; for C13G G44C, 0.05. For C13G G44A, the self-cleavage came out at 0.12. Turning to A14G C18G, the self-cleavage turned out to be 0.21. Under A14G C18A stands 0.2.

For the variant A14G C18U, the self-cleavage came out at 0.42. With A14C U32A, the self-cleavage was 0.07. On to A14C U32C, for which the self-cleavage is 0.08. For A14C U32G the value was 0.07. With C13U C23G, the self-cleavage amounted to 0.06. As to C13U C23U, the self-cleavage amounted to 0.22. With C13U C23A, the self-cleavage turned out to be 0.26. For C13U A16U the value was 0.13; for C13U A16C, 0.1; for C13U A16G, 0.09. For A14G U32G the value was 0.04; for A14G U32A, 0.06; for A14G U32C, 0.08. Turning to C13U U28A, the self-cleavage amounted to 0.49. For C13U U28G the value was 0.08. Under C13U U28C stands 0.28; under C13U A26U, 0.15; under C13U A26G, 0.14. Under C13U A26C stands 0.24. In the case of A14G U20A, the self-cleavage was 0.23. Take A14G U20G: the self-cleavage amounted to 0.15. Under A14G U20C stands 0.78; under A14C A16G, 0.1; under A14C A16C, 0.08.

For A14C A16U, the self-cleavage was determined as 0.12.

With C13U G40C, the self-cleavage is 0.08. C13U G40A: the self-cleavage came to 0.1. C13U G40U: the self-cleavage stood at 0.09.

As for A14G U34C, the self-cleavage was 0.61. Under A14G U34G stands 0.3; under A14G U34A, 0.16.

Consider A14G C42A, for which the self-cleavage was found to be 0.08. Regarding A14G C42U, the self-cleavage was 0.21.

Turning to A14G C42G, the self-cleavage is 0.04. Under C13U G29A stands 0.28; under C13U G29U, 0.21; under C13U G29C, 0.09. Under C13U C31A stands 0.05; under C13U C31G, 0.08.

In the case of C13U C31U, the self-cleavage amounted to 0.12.

Take A14C G36A: the self-cleavage turned out to be 0.15. As to A14C G36U, the self-cleavage turned out to be 0.09. Regarding A14C G36C, the self-cleavage came out at 0.02. Under A14G G19U stands 0.54.

Take A14G G19A: the self-cleavage came to 1.03. As for A14G G19C, the self-cleavage came to 0.25. Turning to C13U G44C, the self-cleavage is 0.06.

Take C13U G44U: the self-cleavage worked out at 0.1. Under C13U G44A stands 0.1; under A14G G21C, 0.24. Consider A14G G21U, for which the self-cleavage came out at 0.79. For A14G G21A the value was 0.71. Under C13G U28C stands 0.36; under C13G U28G, 0.35. On to C13G U28A, for which the self-cleavage turned out to be 0.28. Consider A14G U43G, for which the self-cleavage stood at 0.11. As for A14G U43C, the self-cleavage turned out to be 0.06. Take A14G U43A: the self-cleavage was 0.05. Regarding C13U G17A, the self-cleavage was found to be 0.1.
